Test [1] has as its target T1, dsRed.
T1 construct: also called dsRed (horizontal lines)
T1 chain: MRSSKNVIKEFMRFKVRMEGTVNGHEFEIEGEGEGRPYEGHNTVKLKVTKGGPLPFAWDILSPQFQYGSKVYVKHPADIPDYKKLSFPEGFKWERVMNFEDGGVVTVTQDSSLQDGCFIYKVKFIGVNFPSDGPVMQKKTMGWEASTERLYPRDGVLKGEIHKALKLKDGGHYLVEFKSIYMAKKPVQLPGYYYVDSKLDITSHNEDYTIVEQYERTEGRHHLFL
Briefly: ELISA, coated antigen, goat anti-human IgG-AP, pNPP, absorbance at 405 nm.

The target of test [2] is T1, dsRed. The test is described as above.

Read-outs that look alike come from different tables or passages of the source.

B1: recombinant huMAb-anti-MSP10.2 (antibody, V domains shown)
VH: EVQLVESGGDLVKPGGSLRLSCVVSGFRISTSAMSWVRQVPGKGLEWVSDISESGGSKDYADSVRGRFTISRDTSKNTLYLQMNSLGADDTALYYCAKSVGYFDTSGYYRWDYFDSWGQGTLVTVSS
VL: EIVLTQSPDTLSLSPGETATLSCRASQTVRRNSLAWYQQKPGQAPRLLIYGASDRATGIPDRFSGSGFGTDFTLTVSGLEPEDFAVYYCQQYGTSPRTFGQGTKLEIK
notes: Same heavy chain as huMAb-anti-MSP10.1 with a different kappa light chain; Cloned and expressed like huMAb-anti-MSP10.1 (IgG1m17,1, kappa; N. benthamiana)
As to B1, in the test with dsRed [1], the binding result was “no binding (tested: 100 µg/ml)”.

B2: recombinant huMAb-anti-MSP10.1 (antibody, V domains shown)
VH: EVQLVESGGDLVKPGGSLRLSCVVSGFRISTSAMSWVRQVPGKGLEWVSDISESGGSKDYADSVRGRFTISRDTSKNTLYLQMNSLGADDTALYYCAKSVGYFDTSGYYRWDYFDSWGQGTLVTVSS
VL: EIVLTQSPDILSLSPGERATLSCRASQALTAKYLAWYQQKPGQVPRLLIYGSSTRATGIPDRFRGSGSGTDFTLTISRLEPADSAVYYCQQYEDSPWTFGQGTKLEIK
notes: also called recombinant human anti MSP-10 antibody huMAb-anti-MSP10.1
For the molecule B2, the binding result in the test with dsRed [2] is “no binding (tested: 100 µg/ml)”.

Source of the values: patent US20150197562A1 (FRAUNHOFER GESELLSCHAFT ZUR FOERDERUNG DER ANGEWANDTEN …, published 2015).
